Measurements taken from PMC10689493 (2023).
Read-outs that look alike come from different tables or passages of the source.

B1: DH1057.1 mAb (antibody, V domains shown)
VH: EVQLVESGTEVKKPGASVKVSCKTSGYIFTNYYIHWVRQAPGQGLEWMGIFNPNGGGTSYAQKFQGRITLTGNTSANTGYMVLRSLTSEDTAVYYCARDPRTSGDNDGFDMWGQGTKVTVSS
VL: VLTQSPATLSLSPGERATLSCRASQSLSSYNYLAWYQQKPGQAPRLLIYAASKRATGIPARFSGSGSGTDFTLTISSLEPEDFAVYFCQQRSNRPPAWTFGQGTKVEIK
B2: S2P6 mAb (antibody, V domains shown)
VH: EVQLVQSGAEVKKPGASVKVSCKASGYTFTSQYMHWVRQAPGQGLEWIGIINPSGVHTSYAQKFQGRVTLTRDTSTSTLYMELSSLRSEDTAVYYCARGSPKGAFDYWGQGTLVTVSS
VL: not shown
B3: CC40.8 mAb (antibody, V domains shown)
VH: EVQLLESGGGLVQPGGSLRLSCAASGFTFSSYVMTWARQAPGKGLEWVSAISGTGYTYYADSVKGRFTVSRDNSKNTLFLQMSSLRAEDTAVYYCAITMAPVVWGQGTTVTVSS
VL: SYELTQPPSVSVSPGQTARITCSGDALPKRYAYWYQQKSGQAPILVIYEDKKRPSGIPERLSGSKSGTVATLTISGAQVEDEADYYCYSTDSSGNHAVFGGGTQLTVL

Tests used:
Assay in all cases: SPR
[1] = biological target: B2
[2] = biological target: B1
[3] = biological target: B2; remark: listed apart in the source
[4] = biological target: B1; remark: listed apart in the source
[5] = biological target: S2hlx-Ex17 epitope scaffold
[6] = biological target: S2hlx-Ex20 epitope scaffold
[7] = biological target: S2hlx-Ex15 epitope scaffold
[8] = biological target: S2hlx-13
[9] = biological target: S2hlx-15 epitope scaffold
[10] = biological target: S2hlx-4 epitope scaffold
[11] = biological target: S2hlx-14
[12] = biological target: S2hlx-1
[13] = biological target: S2hlx-8
[14] = biological target: FP-10 epitope scaffold
[15] = biological target: FP-2 epitope scaffold
[16] = biological target: DH1057UCA
[17] = biological target: CC40.8iGL
[18] = biological target: S2P6iGL
[19] = biological target: B2; remark: listed apart in the source
[20] = biological target: B3
[21] = biological target: B1; remark: listed apart in the source
[22] = biological target: B2; remark: listed apart in the source
[23] = biological target: B1; remark: listed apart in the source

| Binder | Kd [5] [nM] | koff [5] [s⁻¹] | Kd [6] [nM] | koff [6] [s⁻¹] | Kd [7] [nM] | koff [7] [s⁻¹] | Kd [8] [nM] | koff [8] [s⁻¹] | Kd [9] [nM] | koff [9] [s⁻¹] | Kd [10] [nM] | koff [10] [s⁻¹] | Kd [11] [nM] | koff [11] [s⁻¹] | Kd [12] [nM] | koff [12] [s⁻¹] | Kd [13] [nM] | koff [13] [s⁻¹] | further results |
| --- | --- | --- | --- | --- | --- | --- | --- | --- | --- | --- | --- | --- | --- | --- | --- | --- | --- | --- | --- |
| S2hlx-7 epitope scaffold (designed binder) MTSTFDRVATIIAETADIPRETITPESHAIDDLGIDELDFLDIAFAIDKAFGISLPLFKWELDVYFGSATTEQYFVLKNLAARIDELVAAKGA | – | – | – | – | – | – | – | – | – | – | – | – | – | – | – | – | – | – | Kd [1]: 0.2 nM; Kd [2]: 0.6 nM; koff [3]: 0.0025 s⁻¹; koff [4]: 0.0026 s⁻¹ |
| B1 | 12.8 | 0.014 | 48.9 | 0.026 | 1.7 | 0.00037 | 176 | 0.0032 | 0.6 | 0.0014 | 4480 | 0.037 | 404 | 0.018 | 353 | 0.0091 | 175 | 0.0015 | – |
| B2 | 29.6 | 0.0082 | 10.7 | 0.00042 | 6 | 0.0086 | 83 | 0.0017 | 0.7 | 0.0018 | 47.7 | 0.00048 | 30 | 0.0016 | 52.8 | 0.0027 | 63 | 0.00021 | – |
| B3 | 27.1 | 0.061 | 10.6 | 0.011 | 3.4 | 0.0085 | – | – | – | – | – | – | – | – | – | – | – | – | – |
| DH1058 mAb (antibody, V domains shown) VH: QVQLVQSGGGVVQPGRSLRLSCAASGFNFGDFGMHWVRQAPGKGLEWVAVISYEGRNKNHADSVRGRFTISRDNSRNMLYLQMNSLRRGDTAVYYCAKENRDRNYDSWSASYSDYYYGMDVWGQGTTVTVSS VL: DIVMTQSPSFLSASVGDRVTITCRASQGIDRYLAWYQQKPGSAPKLLIYAASTLQSGVPSRFSGSGSETDFTLTISSLQPDDFATYYCQQLSTYPTITFGQGTRLEIK | – | – | – | – | – | – | – | – | – | – | – | – | – | – | – | – | – | – | Kd [14]: 0.3 nM; koff [14]: 0.00068 s⁻¹; Kd [15]: 0.1 nM; koff [15]: 0.00066 s⁻¹ |
| S2hlx-Ex19 epitope scaffold (designed binder) MNLDSFKEELDDYFKEKIVKEFEKLCKELISKYEVKKPTPSPEIKKICEYLKKKHEELKDKYPEEFVKEIFKKMWEVFKKELSKQLKKLGVTNDGGEKYKIVKEDLNYLVDVIKSLEGLSDLDLNWEEIWN | – | – | – | – | – | – | – | – | – | – | – | – | – | – | – | – | – | – | Kd [16]: 3080 nM; koff [16]: 0.0019 s⁻¹; Kd [17]: 94.1 nM; koff [17]: 0.028 s⁻¹; Kd [18]: 690 nM; koff [18]: 0.0018 s⁻¹; koff [19]: 0.00033 s⁻¹; koff [20]: 0.02 s⁻¹; koff [21]: 0.027 s⁻¹; Kd [22]: 1.7 nM; Kd [23]: 15.5 nM |
